{"source": "patent US9371374", "binders": {"B1": {"name": "HCV 208A-983 (antibody, V domains shown)", "VH": "QGQMQQSGAELVKPGASVKLSCKTSGFTFSSSYFSWLKQKPGQSLEWIAWIYAGTGNTIYNQKFTDKAQLTVDTASSTAFMQLSSLTIEDSAIYYCAISGTGFTYWGQGTLVTVSA", "VL": "DVLMTQTPLSLPVNLGDQASISCRSSQSLLHSNGNTYLEWFLQKPGQSPKLLIYNVSNRFSGVPDRFSGSGSGTDFTLKISRVEAEDLGVYYCFQGSHVPFTFGSGTKLAIKR"}, "B2": {"name": "HCV 208B-471 (antibody, V domains shown)", "VH": "QGQLQQSGPVLVKPGASEILYCKTSGFTFSSTYISWLKQKPGQSLEWIAWIYAGTGATNYNQKFTGKAQLTVDASSNTAYMHFSGLTPEDSAIYYCAISGAGVYWGQGTLVTVSA", "VL": "B1 VL with L3V, N14S, F41Y, K50N, T77A, E84G, F101L, S105A, A110E, I111L"}, "B3": {"name": "HCV 208B-174 (antibody, V domains shown)", "VH": "EVKLEESGGGLVQPGGSMKLSCVASGFSFSSYWMSWVRQSPEKGLDWVAEIRLRSDNYATHYAESVKGRFTISRDDSISRLYLQMNTLRAEDTGIYYCTWMTYWGQGTLVTVSA", "VL": "QNVLTQSPAIMSASPGEKVTMSCSASSSVTYMFWYQLKPESSPRLLIYDTSNLASGVPVRFSGSGSGTSYSLTISRMEAEDAATYYCQEWSSYPLTFGAGTKLDLKR"}, "B4": {"name": "HCV 208A-967 (antibody, V domains shown)", "VH": "QVQLEESGPGLVAPSQSLSITCTVSGFSLTSYGVHWVRQPPGKGLEWLGVIWAVGSINYNSALMSRLSISKDNSKSQVFLKMNSLRTDDTAMYYCARDRTTATPFFDYWGQGTTLTVSS", "VL": "DIVLTQSPASLAGSLGKRAPISCKASESVNFFGTNLIHWYQQKPGQPPKLLIYHASNLKTGVPARFRGRGSKTNFPLPIDPVEENDVAIYYCLQNRKIPLTFGVGTKLELKR"}, "B5": {"name": "HCV 208A-692 (antibody, V domains shown)", "VH": "B1 VH with V12A, F34I, Y52F, I59N, A75S, F80Y, I88T", "VL": "B1 VL with D1E, T7S, N14S, L30E, K44R, S48P, N55K, N58S"}, "B6": {"name": "HCV 208B-353 (antibody, V domains shown)", "VH": "EVQLVESGGDLVKPGGSLKLSCAASGFTFNHYGMSWVRQPPDKRLEWVATISSGGGYTYYPDSVKGRFTISRDNAKDTLSLQMSSLRSGDTAVYYCASLYGSLFAYWGQGTLVTVSA", "VL": "DIVMTQSQKFMSTTVGDRVRVTCKASQNVGTAVAWYQQKPGQSPKLLIYSASNRYTGVPDRFTGSGSGTDFTLTITNMQSEDLADYFCQQYSTYPLTFGSGAKLEIKR"}, "B7": {"name": "HCV 208A-874 (antibody, V domains shown)", "VH": "QVQLQQPGAELVKPGASVKLSCKASGYTLSSYWMHWVKQRPGQGLEWIGEIHPSDSYTSYNQKFKDKATLTVDKSSSTAYMQLSSLTSEDSAVYYCARGGYYRYDEFAYWGQGTLVTVSA", "VL": "DIVMTQSHKFMSTSIGDRVSITCKASQNVSPAVAWYQQKPGQSPKLLIYSASSRYTGVPDRFTGSGSGTAFTFTISSVQAEDLAVYFCQQHFSTPWTFGGGTMLEIKR"}, "B8": {"name": "HCV 208B-826 (antibody, V domains shown)", "VH": "DVQLVESGGGLVQAGGSRKLSCAASGFPFSSFGMHWVRQAPEKGLEWVASISSRTSKIYYADNLKGRFTISRDNPKNTLFLQMTSLGSEDTAMYYCVRSVFGNSYWFFDVWGAGTTVTVSS", "VL": "DIVLTQSPATLSVTPGDRVSLSCRASQRIYNYLHWYQQKSHESPRLLTKYASQSISGIPSRFSGSGSGTDFILTINSVETEDFGMYFCQQSNSWPLTFGAGTKLELRR"}, "B9": {"name": "HCV 208B-822 (antibody, V domains shown)", "VH": "QVQLKQSGPGLVQPSQSLSITCTVSGFSLITYGVHWVRQSPGKGLEWLGVIWGGGSTGYNAAFVSRLNITKDNSKSQVFFKMNSLQPDDTAIYYCARNGGATVFDYWGQGTTLTVSS", "VL": "DIVMTQSPATLSVTPGDRVSLSCRASQTISDYLHWYQQKSHESPRLLIKYASQSISGIPSRFSGSGSGSHFTLSINSVEPEDVGVYYCQNGHSFPWTFGGGTKLEIKR"}, "B10": {"name": "HCV 208B-862 (antibody)", "chain 1": "DVQLQESGPGLVKPSQSLSLTCTVTGYSITSDYAWNWIRQFPGNKLEWMGYISYSGTTVYSPSLKSRISITRDTSKNQFFLQLNSVTIEDSATYYCGGNYWGQGTLVTVSA", "chain 2": "DVVLTQTPLSLPLSLGDQASISCRSSQTLLHSDGDTYLHWYLQKPGQSPKLLIYKLSNRFSGVPDRFSGSGSGTDFTLKISRVEAEDLGVYFCSQSTHVPYTFGGGTKLEIKR"}, "B11": {"name": "HCV 208B-911 (antibody, V domains shown)", "VH": "QVHLQQPGAELVRPGVSVKLSCKASGYTFTTYSINWMKQRPGQGLEWIGNIYPSTSHTNYNQKFRDKATMTVDKSSSTAYMQLSSPTSEDSAVYYCTINAYSMDYWGQGTSVTVSS", "VL": "QIVLTQSPEIMSASPGEKVTITCSASSSVSFMYWFQQKPGTSPKLWIYITSNLASGVPTRFSGSGSGTSYSLTISRMEAEDAATYYCQQRSSFPYTFGGGTKLEMKR"}, "B12": {"name": "HCV 208B-793 (antibody, V domains shown)", "VH": "EVKLVESGGGLVQPGGSLKLSCAASGFTFSSYAMSWVRQTPERRLEWVTYISNGGGSTYYSDTVKGRFTFSRDNAKNTLYLQMSSLKSEDTAMYYCARHGLGRTGFASWGQGTLVTVSA", "VL": "DIVMTQSHKFMSTSVGDRVSITCKASQDVGTAVAWYQQKPGQSPKLLIYWASTRHTGVPDRFTGSGSGTDFTLTISNVQSEDLADYFCQQYSNYLTFGAGTKLEVKR"}, "B13": {"name": "HCV 208B-672 (antibody, V domains shown)", "VH": "EVKLVESGGSLVQPGGSLKLSCAASGFNFNTYAMSWVRQTPEKRLEWVAYISNGGGNTYYVDTVKGRFTISRDNAKNTLYLRMSSLKSEDTAMYYCARHGLYWGYSMDYWGQGTSVTVSS", "VL": "DIQMTQSPSSLSASLGERVSLTCRASQDIGGSINWLQQEPDGTIKRLIYATSSLDSGVPKRFSGSRSGSDYSLTISSLESEDFVDYYCLQYASSPPTFGGGTKLEIKR"}}, "note": "Substitutions are numbered along the chain they refer to."}
{"biological_target": "T1, HCV Core1-169 (HCV-1), P26664", "T1 chain": "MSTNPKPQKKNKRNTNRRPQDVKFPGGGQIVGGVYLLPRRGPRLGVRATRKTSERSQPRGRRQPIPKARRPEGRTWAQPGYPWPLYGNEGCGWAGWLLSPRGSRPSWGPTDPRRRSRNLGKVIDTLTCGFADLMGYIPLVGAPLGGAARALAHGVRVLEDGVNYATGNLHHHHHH", "test": "SPR sandwich, C11-14 capture", "details": "remark: other sources report otherwise", "units": {"expected % binding": "%"}}
{"binder": "B1", "expected % binding": "< 1"}
{"binder": "B2", "expected % binding": "< 1"}
{"binder": "B3", "expected % binding": 1.6}
{"biological_target": "biotinylated HCV core peptide 134-154 (Peptide 1) (HCV-1)", "test": "EIA, captured mAb", "details": "not given", "units": {"Reactivity (OD492)": "OD"}}
{"binder": "B4", "Reactivity (OD492)": 0.52}
{"biological_target": "biotinylated HCV core peptide 151-171 (Peptide 3) (HCV-1)", "test": "EIA, captured mAb", "details": "not given", "units": {"Reactivity (OD492)": "OD"}}
{"binder": "B4", "Reactivity (OD492)": 0.18}
{"biological_target": "biotinylated HCV core peptide 141-161 (Peptide 2) (HCV-1)", "test": "EIA, captured mAb", "details": "not given", "units": {"Reactivity (OD492)": "OD"}}
{"binder": "B5", "Reactivity (OD492)": 0.38}
{"binder": "B4", "Reactivity (OD492)": 0.73}
{"biological_target": "HCV Core1-169 (HCV-1) (UniProt P26664)", "test": "SPR sandwich, C11-9 capture", "details": "not given", "units": {"expected % binding": "%"}}
{"binder": "B6", "expected % binding": "< 1"}
{"binder": "B7", "expected % binding": "< 1"}
{"binder": "B4", "expected % binding": "< 1"}
{"biological_target": "HCV Core1-169 (HCV-1) (UniProt P26664)", "test": "SPR sandwich, C11-7 capture", "details": "not given", "units": {"expected % binding": "%"}}
{"binder": "B6", "expected % binding": 2.6}
{"binder": "B7", "expected % binding": "< 1"}
{"binder": "B4", "expected % binding": "< 1"}
{"biological_target": "T1, HCV Core1-169 (HCV-1), P26664", "test": "SPR sandwich, C11-7 capture", "details": "remark: other sources report otherwise", "units": {"expected % binding": "%"}}
{"binder": "B1", "expected % binding": "< 1"}
{"binder": "B2", "expected % binding": "< 1"}
{"binder": "B3", "expected % binding": 1.5}
{"biological_target": "T1, HCV Core1-169 (HCV-1), P26664", "test": "SPR sandwich, C11-3 capture", "details": "remark: other sources report otherwise", "units": {"expected % binding": "%"}}
{"binder": "B1", "expected % binding": "< 1"}
{"binder": "B2", "expected % binding": "< 1"}
{"binder": "B3", "expected % binding": 1.6}
{"biological_target": "biotinylated HCV core peptide 134-154 (Peptide 1) (HCV-1)", "test": "EIA, captured mAb", "details": "not given", "remark": "another data set of the same source", "units": {"Reactivity (OD492)": "OD"}}
{"binder": "B8", "Reactivity (OD492)": 0.53}
{"binder": "B1", "Reactivity (OD492)": 3.03}
{"binder": "B5", "Reactivity (OD492)": 3.67}
{"binder": "B2", "Reactivity (OD492)": 1.62}
{"binder": "B6", "Reactivity (OD492)": 0.07}
{"binder": "B9", "Reactivity (OD492)": 0.08}
{"binder": "B10", "Reactivity (OD492)": 0.21}
{"binder": "B11", "Reactivity (OD492)": 0.09}
{"binder": "B7", "Reactivity (OD492)": 0.05}
{"binder": "B12", "Reactivity (OD492)": 0.09}
{"binder": "B3", "Reactivity (OD492)": 0.08}
{"binder": "B13", "Reactivity (OD492)": 0.08}
{"biological_target": "biotinylated HCV core peptide 141-161 (Peptide 2) (HCV-1)", "test": "EIA, captured mAb", "details": "not given", "remark": "another data set of the same source", "units": {"Reactivity (OD492)": "OD"}}
{"binder": "B8", "Reactivity (OD492)": 1.35}
{"binder": "B1", "Reactivity (OD492)": 0.4}
{"binder": "B2", "Reactivity (OD492)": 0.11}
{"binder": "B6", "Reactivity (OD492)": 2.47}
{"binder": "B9", "Reactivity (OD492)": 1.35}
{"binder": "B10", "Reactivity (OD492)": 3.28}
{"binder": "B11", "Reactivity (OD492)": 0.09}
{"binder": "B7", "Reactivity (OD492)": 0.73}
{"binder": "B12", "Reactivity (OD492)": 0.72}
{"binder": "B3", "Reactivity (OD492)": 1.26}
{"binder": "B13", "Reactivity (OD492)": 2.79}
{"biological_target": "biotinylated HCV core peptide 151-171 (Peptide 3) (HCV-1)", "test": "EIA, captured mAb", "details": "not given", "remark": "another data set of the same source", "units": {"Reactivity (OD492)": "OD"}}
{"binder": "B8", "Reactivity (OD492)": 0.08}
{"binder": "B1", "Reactivity (OD492)": 0.05}
{"binder": "B5", "Reactivity (OD492)": 0.07}
{"binder": "B2", "Reactivity (OD492)": 0.08}
{"binder": "B6", "Reactivity (OD492)": 0.07}
{"binder": "B9", "Reactivity (OD492)": 0.07}
{"binder": "B10", "Reactivity (OD492)": 0.1}
{"binder": "B11", "Reactivity (OD492)": 0.71}
{"binder": "B7", "Reactivity (OD492)": 0.06}
{"binder": "B12", "Reactivity (OD492)": 0.09}
{"binder": "B3", "Reactivity (OD492)": 0.07}
{"binder": "B13", "Reactivity (OD492)": 0.1}
{"biological_target": "HCV Core1-169 (HCV-1) (UniProt P26664)", "test": "EIA, coated core1-169", "details": "not given", "units": {"OD (A492)": "OD"}}
{"binder": "B6", "OD (A492)": 0.3}
{"biological_target": "HCV Core1-169 (HCV-1) (UniProt P26664)", "test": "SPR sandwich, C11-14 capture", "details": "not given", "units": {"expected % binding": "%"}}
{"binder": "B6", "expected % binding": 2.4}
{"binder": "B7", "expected % binding": "< 1"}
{"binder": "B4", "expected % binding": "< 1"}
{"biological_target": "T1, HCV Core1-169 (HCV-1), P26664", "test": "SPR sandwich, C11-9 capture", "details": "remark: other sources report otherwise", "units": {"expected % binding": "%"}}
{"binder": "B1", "expected % binding": "< 1"}
{"binder": "B2", "expected % binding": "< 1"}
{"binder": "B3", "expected % binding": "< 1"}
{"biological_target": "HCV Core1-169 (HCV-1) (UniProt P26664)", "test": "SPR sandwich, C11-3 capture", "details": "not given", "units": {"expected % binding": "%"}}
{"binder": "B6", "expected % binding": 1.9}
{"binder": "B7", "expected % binding": "< 1"}
{"binder": "B4", "expected % binding": "< 1"}
